Test results published in patent publication US20250186594A1 (BRIGHT PEAK THERAPEUTICS, published 2025).

T1: IL-18 receptor (IL-18R) on HEK-Blue IL18R reporter cells (UniProt Q13478 19-541; O95256 20-599, limits assumed)
T1 sequence (looked up) 1: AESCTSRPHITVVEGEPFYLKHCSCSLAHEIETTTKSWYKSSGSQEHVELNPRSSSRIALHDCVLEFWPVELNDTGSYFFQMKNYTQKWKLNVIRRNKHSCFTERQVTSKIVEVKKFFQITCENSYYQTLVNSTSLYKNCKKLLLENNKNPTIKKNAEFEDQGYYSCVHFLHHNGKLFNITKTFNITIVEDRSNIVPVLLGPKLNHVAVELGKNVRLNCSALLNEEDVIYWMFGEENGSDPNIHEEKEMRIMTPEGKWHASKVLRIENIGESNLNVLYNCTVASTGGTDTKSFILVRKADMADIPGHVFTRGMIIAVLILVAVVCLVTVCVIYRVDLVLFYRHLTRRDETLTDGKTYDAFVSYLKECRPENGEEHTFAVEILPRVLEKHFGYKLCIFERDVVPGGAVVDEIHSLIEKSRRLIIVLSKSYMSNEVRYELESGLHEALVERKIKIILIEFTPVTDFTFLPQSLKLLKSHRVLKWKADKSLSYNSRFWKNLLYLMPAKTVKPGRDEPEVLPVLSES
T1 sequence (looked up) 2: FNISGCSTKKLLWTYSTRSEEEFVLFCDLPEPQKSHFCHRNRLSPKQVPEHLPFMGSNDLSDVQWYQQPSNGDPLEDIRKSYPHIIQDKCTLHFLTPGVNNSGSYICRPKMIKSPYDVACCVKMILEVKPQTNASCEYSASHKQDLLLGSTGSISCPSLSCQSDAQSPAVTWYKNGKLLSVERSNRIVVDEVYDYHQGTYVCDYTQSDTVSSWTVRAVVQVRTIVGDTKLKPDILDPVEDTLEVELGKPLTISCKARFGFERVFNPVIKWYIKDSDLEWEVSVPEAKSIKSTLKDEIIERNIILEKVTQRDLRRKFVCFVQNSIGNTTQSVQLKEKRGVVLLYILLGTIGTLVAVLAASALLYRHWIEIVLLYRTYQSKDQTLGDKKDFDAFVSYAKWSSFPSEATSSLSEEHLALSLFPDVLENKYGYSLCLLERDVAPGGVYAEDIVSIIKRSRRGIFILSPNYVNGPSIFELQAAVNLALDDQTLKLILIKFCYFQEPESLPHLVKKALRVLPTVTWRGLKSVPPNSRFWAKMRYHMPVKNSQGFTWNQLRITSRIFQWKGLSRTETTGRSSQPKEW

T2: IL-18Rα/β heterodimer (Fc fused human IL-18Rα mixed with Fc fused human IL-18Rβ) (human, UniProt Q13478 19-329; O95256 20-356, limits assumed)
T2 construct: Alpha and beta Fc fusions were mixed and pre-incubated for 30 min before capture on anti-human IgG; also called alpha/beta heterodimer IL-18 receptor; heterodimeric human IL-18 receptor alpha (CD218a) and IL-18R accessory protein (IL-18RAP/CDw218b); not shown: Fc
T2 sequence (looked up) 1: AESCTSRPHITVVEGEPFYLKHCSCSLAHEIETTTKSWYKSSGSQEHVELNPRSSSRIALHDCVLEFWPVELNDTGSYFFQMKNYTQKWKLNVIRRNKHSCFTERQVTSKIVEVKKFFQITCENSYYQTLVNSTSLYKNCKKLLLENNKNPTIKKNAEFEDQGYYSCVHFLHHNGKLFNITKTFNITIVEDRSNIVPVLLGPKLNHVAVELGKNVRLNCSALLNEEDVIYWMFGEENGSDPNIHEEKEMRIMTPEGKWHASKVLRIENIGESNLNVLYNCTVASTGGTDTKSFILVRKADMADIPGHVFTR
T2 sequence (looked up) 2: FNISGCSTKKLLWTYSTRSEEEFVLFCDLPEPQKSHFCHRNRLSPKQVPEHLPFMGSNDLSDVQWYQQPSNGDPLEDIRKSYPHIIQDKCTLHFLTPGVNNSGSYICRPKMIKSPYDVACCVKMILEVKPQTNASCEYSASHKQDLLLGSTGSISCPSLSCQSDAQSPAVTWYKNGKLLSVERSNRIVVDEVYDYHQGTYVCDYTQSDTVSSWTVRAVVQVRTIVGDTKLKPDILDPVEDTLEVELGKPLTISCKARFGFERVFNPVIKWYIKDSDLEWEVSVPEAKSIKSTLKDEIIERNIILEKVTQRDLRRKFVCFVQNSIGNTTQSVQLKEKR

B1: IL-18 variant SEQ ID NO: 240 (E6R, V11I, C38A, K53A, T63A, C76A, C127A) (ligand)
chain: YFGKLRSKLSIIRNLNDQVLFIDQGNRPLFEDMTDSDARDNAPRTIFIISMYADSQPRGMAVAISVKCEKISTLSAENKIISFKEMNPPDNIKDTKSDIIFFQRSVPGHDNKMQFESSSYEGYFLAAEKERDLFKLILKKEDELGDRSIMFTVQNED
B2: IL-18 variant SEQ ID NO: 204 (V11I, C38A, K53A, C76A, C127A) (ligand)
chain: YFGKLESKLSIIRNLNDQVLFIDQGNRPLFEDMTDSDARDNAPRTIFIISMYADSQPRGMAVTISVKCEKISTLSAENKIISFKEMNPPDNIKDTKSDIIFFQRSVPGHDNKMQFESSSYEGYFLAAEKERDLFKLILKKEDELGDRSIMFTVQNED
B3: IL-18 variant SEQ ID NO: 212 (V11I, D35A, C38A, K53A, C76A, C127A) (ligand)
chain: YFGKLESKLSIIRNLNDQVLFIDQGNRPLFEDMTASDARDNAPRTIFIISMYADSQPRGMAVTISVKCEKISTLSAENKIISFKEMNPPDNIKDTKSDIIFFQRSVPGHDNKMQFESSSYEGYFLAAEKERDLFKLILKKEDELGDRSIMFTVQNED
B4: IL-18 variant SEQ ID NO: 206 (V11I, C38A, K53A, S55A, C76A, C127A) (ligand)
chain: YFGKLESKLSIIRNLNDQVLFIDQGNRPLFEDMTDSDARDNAPRTIFIISMYADAQPRGMAVTISVKCEKISTLSAENKIISFKEMNPPDNIKDTKSDIIFFQRSVPGHDNKMQFESSSYEGYFLAAEKERDLFKLILKKEDELGDRSIMFTVQNED
B5: IL-18 variant SEQ ID NO: 205 (V11I, C38A, K53A, T63A, C76A, C127A) (ligand)
chain: YFGKLESKLSIIRNLNDQVLFIDQGNRPLFEDMTDSDARDNAPRTIFIISMYADSQPRGMAVAISVKCEKISTLSAENKIISFKEMNPPDNIKDTKSDIIFFQRSVPGHDNKMQFESSSYEGYFLAAEKERDLFKLILKKEDELGDRSIMFTVQNED
B6: IL-18 variant SEQ ID NO: 214 (V11I, D37A, C38A, K53A, C76A, C127A) (ligand)
chain: YFGKLESKLSIIRNLNDQVLFIDQGNRPLFEDMTDSAARDNAPRTIFIISMYADSQPRGMAVTISVKCEKISTLSAENKIISFKEMNPPDNIKDTKSDIIFFQRSVPGHDNKMQFESSSYEGYFLAAEKERDLFKLILKKEDELGDRSIMFTVQNED
B7: IL-18 variant SEQ ID NO: 208 (V11I, C38A, K53A, D54A, C76A, C127A) (ligand)
chain: YFGKLESKLSIIRNLNDQVLFIDQGNRPLFEDMTDSDARDNAPRTIFIISMYAASQPRGMAVTISVKCEKISTLSAENKIISFKEMNPPDNIKDTKSDIIFFQRSVPGHDNKMQFESSSYEGYFLAAEKERDLFKLILKKEDELGDRSIMFTVQNED
B8: IL-18 variant SEQ ID NO: 211 (V11I, T34A, C38A, K53A, C76A, C127A) (ligand)
chain: YFGKLESKLSIIRNLNDQVLFIDQGNRPLFEDMADSDARDNAPRTIFIISMYADSQPRGMAVTISVKCEKISTLSAENKIISFKEMNPPDNIKDTKSDIIFFQRSVPGHDNKMQFESSSYEGYFLAAEKERDLFKLILKKEDELGDRSIMFTVQNED
B9: IL-18 variant SEQ ID NO: 209 (F2A, V11I, C38A, K53A, C76A, C127A) (ligand)
chain: YAGKLESKLSIIRNLNDQVLFIDQGNRPLFEDMTDSDARDNAPRTIFIISMYADSQPRGMAVTISVKCEKISTLSAENKIISFKEMNPPDNIKDTKSDIIFFQRSVPGHDNKMQFESSSYEGYFLAAEKERDLFKLILKKEDELGDRSIMFTVQNED
B10: IL-18 variant SEQ ID NO: 213 (V11I, S36A, C38A, K53A, C76A, C127A) (ligand)
chain: YFGKLESKLSIIRNLNDQVLFIDQGNRPLFEDMTDADARDNAPRTIFIISMYADSQPRGMAVTISVKCEKISTLSAENKIISFKEMNPPDNIKDTKSDIIFFQRSVPGHDNKMQFESSSYEGYFLAAEKERDLFKLILKKEDELGDRSIMFTVQNED
B11: IL-18 variant SEQ ID NO: 210 (V11I, E31A, C38A, K53A, C76A, C127A) (ligand)
chain: YFGKLESKLSIIRNLNDQVLFIDQGNRPLFADMTDSDARDNAPRTIFIISMYADSQPRGMAVTISVKCEKISTLSAENKIISFKEMNPPDNIKDTKSDIIFFQRSVPGHDNKMQFESSSYEGYFLAAEKERDLFKLILKKEDELGDRSIMFTVQNED
B12: IL-18 variant SEQ ID NO: 217 (V11I, C38A, N41A, K53A, C76A, C127A) (ligand)
chain: YFGKLESKLSIIRNLNDQVLFIDQGNRPLFEDMTDSDARDAAPRTIFIISMYADSQPRGMAVTISVKCEKISTLSAENKIISFKEMNPPDNIKDTKSDIIFFQRSVPGHDNKMQFESSSYEGYFLAAEKERDLFKLILKKEDELGDRSIMFTVQNED
B13: IL-18 variant SEQ ID NO: 218 (V11I, C38A, K53A, C76A, C127A, D132A) (ligand)
chain: YFGKLESKLSIIRNLNDQVLFIDQGNRPLFEDMTDSDARDNAPRTIFIISMYADSQPRGMAVTISVKCEKISTLSAENKIISFKEMNPPDNIKDTKSDIIFFQRSVPGHDNKMQFESSSYEGYFLAAEKERALFKLILKKEDELGDRSIMFTVQNED
B14: IL-18 variant SEQ ID NO: 215 (V11I, E31A, D37A, C38A, K53A, C76A, C127A) (ligand)
chain: YFGKLESKLSIIRNLNDQVLFIDQGNRPLFADMTDSAARDNAPRTIFIISMYADSQPRGMAVTISVKCEKISTLSAENKIISFKEMNPPDNIKDTKSDIIFFQRSVPGHDNKMQFESSSYEGYFLAAEKERDLFKLILKKEDELGDRSIMFTVQNED
B15: IL-18 variant SEQ ID NO: 216 (V11I, C38A, D40A, K53A, C76A, C127A) (ligand)
chain: YFGKLESKLSIIRNLNDQVLFIDQGNRPLFEDMTDSDARANAPRTIFIISMYADSQPRGMAVTISVKCEKISTLSAENKIISFKEMNPPDNIKDTKSDIIFFQRSVPGHDNKMQFESSSYEGYFLAAEKERDLFKLILKKEDELGDRSIMFTVQNED
B16: IL-18 variant SEQ ID NO: 243 (Y1M, E6K, V11I, C38A, K53A, T63A, C76A, C127A) (ligand)
chain: MFGKLKSKLSIIRNLNDQVLFIDQGNRPLFEDMTDSDARDNAPRTIFIISMYADSQPRGMAVAISVKCEKISTLSAENKIISFKEMNPPDNIKDTKSDIIFFQRSVPGHDNKMQFESSSYEGYFLAAEKERDLFKLILKKEDELGDRSIMFTVQNED
B17: IL-18 variant SEQ ID NO: 62 with 30 kDa PEG (E6K, C38A, K53A, C127A, C68-30kPEG) (ligand)
chain: YFGKLKSKLSVIRNLNDQVLFIDQGNRPLFEDMTDSDARDNAPRTIFIISMYADSQPRGMAVTISVKCEKISTLSCENKIISFKEMNPPDNIKDTKSDIIFFQRSVPGHDNKMQFESSSYEGYFLAAEKERDLFKLILKKEDELGDRSIMFTVQNED
modifications: 30 kDa PEG on Cys 68 (C68-30kPEG)
notes: also called 62 + PEG

molecular target: T1, IL-18 receptor (IL-18R) on HEK-Blue …; test: cell-based or functional assay

In order of falling “EC50, HEK-Blue IL18R reporter” value:
1. B6  14.1 nM
2. B3  13.1 nM
3. B14  11.9 nM
4. B12  11.7 nM
5. B9  7.28 nM
6. B11  6.6 nM
7. B4  3.63 nM
8. B13  1.95 nM
9. B7  1 nM
10. B2  0.98 nM
11. B8  0.7 nM
12. B15  0.52 nM
13. B10  0.25 nM
14. B5  0.17 nM
15. B1  0.04 nM
16. B16  0.02 nM

molecular target: T2, IL-18Rα/β heterodimer (Fc fused human …); test: SPR, Fc-IL-18Rα/β captured, heterogeneous ligand fit
Description: The interaction of the wild type and of modified IL-18 polypeptides with human IL-18 receptor subunits are measured with Surface Plasmon Resonance (SPR) technology. Anti-human IgG antibodies are bound by amine coupling onto a CM5 chip to capture 6 µg/mL of Fc fused human IL-18Rα, […] of Fc fused human IL-18Rβ, or […] of Fc fused human IL-18BP isoform a (IL-18BPa) for 30 min before capture. In other settings, […] of alpha and beta IL-18 receptors are mixed and pre-incubated for 30 min before capture of the alpha/beta heterodimer IL-18 receptor.
The kinetic binding of the IL-18 analytes are measured with a Biacore 8K instrument in two fold serial dilutions starting at […] down to 0.98 nM. Regeneration of the surface back to amine coupled anti IgG antibody is done after every concentration of analyte. To measure the protein association to the receptors, the samples are injected with a flow rate of […] for 60 s, followed by 300 s buffer only to detect the dissociation. The used running buffer is 1×PBS with 0.05% Tween20. The relative response units (RU, Y-axis) are plotted against time (s, X-axis) and analyzed in a kinetic 1:1 binding model for the monomer receptor binding and for the binding to the IL-18BP. A kinetic heterogenous ligand fit model is applied for the alpha/beta heterodimer binding.

In the case of B17, the Kd is reported as 14.9 nM.

In the case of B17, the koff is reported as 0.000779 s⁻¹.

With B17 the kon was 52300 M⁻¹ s⁻¹.
